Patent US12545899B2, “Luciferase enzymes for use with thermostable luciferins in bioluminescent assays” (Promega Corporation, priority 2018, dated 2026)
Positions count from the first letter of the chain named. Numbers in names are those of the source.

B1: ATG-2877: SEQ ID NO: 5; H244W (protein)
chain: MADKNILYGPEPFYPLEDGTAGEQMFDALSRYAAIPGCIALTNAHTKENVLYEEFLKLSCRLAESFKKYGLKQNDTIAVCSENSLQFFLPVIASLYLGIIVAPVNDKYIERELIHSLGIVKPRIVFCSKNTFQKVLNVKSKLKSIETIIILDLNEDLGGYQCLNNFISQNSDSNLDVKKFKPYSFNRDDQVASIMFSSGTTGLPKGVMLTHKNIVARFSIAKDPTFGNAINPTSAILTVIPFHWGFGMMTTLGYFTCGFRVVLMHTFEEKLFLQSLQDYKVESTLLVPTLMAFLAKSALVEKYDLSHLKEIASGGAPLSKEIGEMVKKRFKLNFVRQGYGLTETTSAVLITPKGDAKPGSTGKIVPLHAVKVVDPTTGKILGPNEPGELYFKGPMIMKGYYNNEEATKAIIDNDGWLRSGDIAYYDNDGHFYIVDRLKSLIKYKGYQVAPAEIEGILLQHPYIVDAGVTGIPDEAAGELPAAGVVVQTGKYLNEQIVQDYVASQVSTAKWLRGGVKFLDEIPKGSTGKIDRKVLRQMLEKHTNGHHHHHHHH
B2: C2261E4: SEQ ID NO: 50; H244W+T344A+I396K+S193A+N228D+L305F+S306P+I109V+I230F (protein)
chain: B1 chain with I109V, S193A, N228D, I230F, L305F, S306P, T344A, I396K
B3: C2262C2: SEQ ID NO: 47; H244W+T344A+I396K+S193A+N228D+L305F+S306P+I109V+Y183C+V261A+T289S (protein)
chain: B1 chain with I109V, Y183C, S193A, N228D, V261A, T289S, L305F, S306P, T344A, I396K
B4: C7579E3: SEQ ID NO: 71; H244W+T344A+I396K+S193A+N228D+L305F+S306P+I109V+Y339M (protein)
chain: B1 chain with W244H, S306P
B5: C2158H3: SEQ ID NO: 46; H244W+T344A+I396K+S193A+N228D+L305F+S306P+I109V+N154S+V261A+I410M (protein)
chain: B1 chain with I109V, N154S, S193A, N228D, V261A, L305F, S306P, T344A, I396K, I410M
B6: C2159F8: SEQ ID NO: 48; H244W+T344A+I396K+S193A+N228D+L305F+S306P+I109V+Y32C (protein)
chain: B1 chain with Y32C, I109V, S193A, N228D, L305F, S306P, T344A, I396K
B7: C7584F2: SEQ ID NO: 73; H244W+T344A+I396K+S193A+N228D+L305F+S306P+I109V+A344I (protein)
chain: B1 chain with W244H, T344A
B8: C2160C1: SEQ ID NO: 51; H244W+T344A+I396K+S193A+N228D+L305F+S306P+I109V+K121Q+F246Y+V261A (protein)
chain: B1 chain with I109V, K121Q, S193A, N228D, F246Y, V261A, L305F, S306P, T344A, I396K
B9: C2149A12: SEQ ID NO: 49; H244W+T344A+I396K+S193A+N228D+L305F+S306P+I109V+F246Y+V261A (protein)
chain: B1 chain with I109V, S193A, N228D, F246Y, V261A, L305F, S306P, T344A, I396K
B10: C7612E10: SEQ ID NO: 68; H244W+T344A+I396K+S193A+N228D+L305F+S306P+I109V+V348I (protein)
chain: B1 chain with I109V, W244H
B11: C2158H1: SEQ ID NO: 44; H244W+T344A+I396K+S193A+N228D+L305F+S306P+I109V+I230F (protein)
chain: B1 chain with I109V, S193A, N228D, I230F, L305F, S306P, T344A, I396K
B12: MK0136: SEQ ID NO: 104; H244W+S193A+N228D+L305F+S306P+I109V+C38R+F55I+Y108F+A316W+Y339M (protein)
chain: MADKNILYGPEPFYPLEDGTAGEQMFDALSRYAAIPGRIALTNAHTKENVLYEEILKLSCRLAESFKKYGLKQNDTIAVCSENSLQFFLPVIASLYLGIIVAPVNDKFVERELIHSLGIVKPRIVFCSKNTFQKVLNVKSKLKSIETIIILDLNEDLGGYQCLNNFISQNSDSNLDVKKFKPYSFNRDDQVAAIMFSSGTTGLPKGVMLTHKNIVARFSIAKDPTFGDAINPTSAILTVIPFHWGFGMMTTLGYFTCGFRVVLMHTFEEKLFLQSLQDYKVESTLLVPTLMAFLAKSALVEKYDFPHLKEIASGGWPLSKEIGEMVKKRFKLNFVRQGMGLSETTSAILITPKGDAKPGSTGKIVPLHAVKVVDPTTGKILGPNEPGELYFKGPMIMKGYYNNEEATKAIIDNDGWLRSGDIAYYDNDGHFYIVDRLKSLIKYKGYQVAPAEIEGILLQHPYIVDAGVTGIPDEAAGELPAAGVVVQTGKYLNEQIVQDYVASQVSTAKWLRGGVKFLDEIPKGSTGKIDRKVLRQMLEKHTNGHHHHHHHH
B13: MK0138: SEQ ID NO: 106; H244W+S193A+N228D+L305F+S306P+I109V+C38R+F55I+Y108F+A316W+Y339M+T3441+I396K (protein)
chain: B12 chain with F108Y, K121Q, S342T, T344I, I396K

Legend:
[1] = Differential scanning fluorimetry (DSF) analysis; assay type: physicochemical; design: key to DSF Tm: melting temperature in °C (heated 30-95 °C at 1 °C/min); conditions: for DSF Tm: Table 7A; for DSF Tm (° C.): Table 9B
Procedure: (§1) To conduct the experiment, Sypro Orange (5000×) was diluted in water to 3× and combined with enzymes stored in 50 mM HEPES pH 7.5, 100 mM NaCl, 2 mM EDTA to a final concentration of 5×. Fluorescence was read at 60 second intervals as the reactions were heated at 1° C. per minute from 30-95° C. The change in fluorescence at each minute was calculated and plotted for each temperature in the range.
as §1, with “The luciferase enzyme variants generated were also evaluated using DSF analysis as shown in the representative results provided in Tables 7A and 7B above. To” for “To”, “the experiments,” for “the experiment,”, “in 20” for “in 50”, “7.5, 200” for “7.5, 100”, “NaCl, 1” for “NaCl, 2”

[2] = Luminescence of ATG-3707 variants (second round epPCR) with CS0333; assay type: biochemical; conditions: for Luminescence (RLU) BrightGlo / Normalized Luminescence BrightGlo: BrightGlo buffer; for Luminescence (RLU) BrightGlo / Luminescence (RLU) CellTiterGlo / Luminescence (RLU) Detection Reagent: 25° C., 3 min; for Normalized Luminescence BrightGlo / Normalized Luminescence CellTiterGlo / Normalized Luminescence Detection Reagent: normalized to ATG-3707; for Luminescence (RLU) CellTiterGlo / Normalized Luminescence CellTiterGlo: CellTiterGlo buffer; for Luminescence (RLU) Detection Reagent / Normalized Luminescence Detection Reagent: Detection Reagent buffer
Procedure: Reagent compositions included CS0333 diluted from 20 mM to 2 mM in reaction buffer with 2 mM ATP. […] Reactions were incubated at 25° C. for 3 min, and luminescence was read and then normalized to ATG-3707 activity tested in parallel.

[3] = Brightness of additional luciferase enzyme variants with CS0333; assay type: biochemical; conditions: Table 7A, 1 mM CS0333; for Fold-improvement over ATG3707, CS0333 BG: Bright-Glo buffer; for Fold-improvement over ATG3707, CS0333 DR: Detection Reagent buffer
Procedure: (§2) Additional luciferase enzyme variants were generated and evaluated for their stability and activity. To evaluate the additional luciferase enzyme variants, 0.005 mg/ml luciferase enzyme variant was mixed with 1 mM ATP+1 mM substrate in either Bright-Glo™ (BG) or Detection Reagent (DR) buffers. […] (Table 7A is colored according to their relative luminescence values within each column across a red to green color spectrum with the lowest values colored red and the highest values colored green.)

[4] = Brightness of additional luciferase enzyme variants with CS0280; assay type: biochemical; conditions: Table 7A, 1 mM CS0280; for Fold-improvement over ATG3707, CS0280 BG: Bright-Glo buffer; for Fold-improvement over ATG3707, CS0280 DR: Detection Reagent buffer
Procedure: as §2

Molecule | transition melting temperature by DSF ([1]; compared with Ppe variant (SEQ ID NO: 1), FIG. 29) | Luminescence (RLU) BrightGlo [2] [RLU] | Normalized Luminescence BrightGlo [2] | Luminescence (RLU) CellTiterGlo [2] [RLU] | Normalized Luminescence CellTiterGlo [2] | Luminescence (RLU) Detection Reagent [2] [RLU] | Normalized Luminescence Detection Reagent [2] | Fold-improvement over ATG3707, CS0333 BG [3] | Fold-improvement over ATG3707, CS0333 DR [3] | Fold-improvement over ATG3707, CS0280 BG [4] | Fold-improvement over ATG3707, CS0280 DR [4] | DSF Tm [1] | DSF Tm (° C.) [1] [°C]
B1 | does not alter the transition melting temperature | – | – | – | – | – | – | – | – | – | – | – | –
B2 | – | 3249560 | 0.84 | 710098 | 1.10 | 5375380 | 1.04 | – | – | – | – | – | –
B3 | – | 3874490 | 1.00 | 738328 | 1.15 | 5661740 | 1.10 | – | – | – | – | – | –
B4 | – | – | – | – | – | – | – | 1.19 | 1.96 | 3.26 | 3.63 | 55 | –
B5 | – | 3892740 | 1.00 | 648483 | 1.01 | 5916440 | 1.15 | – | – | – | – | – | –
B6 | – | 4599710 | 1.18 | 650068 | 1.01 | 5611680 | 1.09 | – | – | – | – | – | –
B7 | – | – | – | – | – | – | – | 2.35 | 2.15 | 2.78 | 2.68 | 65 | –
B8 | – | 4459170 | 1.15 | 450262 | 0.70 | 5002710 | 0.97 | – | – | – | – | – | –
B9 | – | 4701610 | 1.21 | 479613 | 0.74 | 5480500 | 1.06 | – | – | – | – | – | –
B10 | – | – | – | – | – | – | – | 2.28 | 2.27 | 2.22 | 2.02 | 63 | –
B11 | – | 3760160 | 0.97 | 778990 | 1.21 | 6098750 | 1.18 | – | – | – | – | – | –
B12 | – | – | – | – | – | – | – | – | – | – | – | – | 71
B13 | – | – | – | – | – | – | – | – | – | – | – | – | 58
